# In FireProtDB (doi:10.1016/0022-2836(92)90560-7):
# B1: Ribonuclease wild type, P00648 (protein)
# chain: MMKMEGIALKKRLSWISVCLLVLVSAAGMLFSTAAKTETSSHKAHTEAQVINTFDGVADYLQTYHKLPDNYITKSEAQALGWVASKGNLADVAPGKSIGGDIFSNREGKLPGKSGRTWREADINYTSGFRNSDRILYSSDWLIYKTTDHYQTFTKIR
# Settings: Bacillus amyloliquefaciens, 25 °C, Urea, Fluorescence, MES/Tris 150 mM/150 mM/, NaCl 1 M, whole UniProt chain shown
protein,measurement,setting,value
B1,denaturant m value,pH 5.8,1.95 kcal/mol/M
same,denaturant midpoint (higher = more stable),pH 5.8,5.62 M
same,unfolding free energy,pH 5.8,11 kcal/mol
same,denaturant m value,pH 9,2.11 kcal/mol/M
same,denaturant midpoint (higher = more stable),pH 9,4.8 M
same,unfolding free energy,pH 9,9.41 kcal/mol
